Positions count from the first letter of the chain named.
B1: DVD2193 (bispecific antibody)
VH: EVQLVQSGAEVKKPGSSVKVSCKASGGSFGGYGIGWVRQAPGQGLEWMGGITPFFGFADYAQKFQGRVTITADESTTTAYMELSGLTSDDTAVYYCARDPNEFWNGYYSTHDFDSWGQGTTVTVSSASTKGPEVQLVQSGAEVKKPGASVKVSCKASGYTFTSYWMHWVRQAPGQGLEWIGNINPKGGSNIYNEKFQGRVTMTRDTSISTAYMELSRLRSDDTAVYYCARLDYFGDSFDLWGQGTTVTVSS
VL: EIVLTQSPDFQSVTPKEKVTITCRASQDIGSELHWYQQKPDQPPKLLIKYASHSTSGVPSRFSGSGSGTDFTLTINGLEAEDAGTYYCHQTDSLPYTFGPGTKVDIKRTVAAPSVFIFPPDIQMTQSPSSLSASVGDRVTITCRASQGIRNYLNWYQQKPGKAPKLLIYYASNLEVGVPSRFSGSGSGTDYTLTISSLQPEDFATYYCQQDNRFPYTFGGGTKVEIKR
notes: DVD-Ig; also called DVD2193H; DVD2193L
B2: DVD2196 (bispecific antibody)
VH: EVQLVQSGAEVKKPGASVKVSCKASGYTFTSYWMHWVRQAPGQGLEWIGNINPKGGSNIYNEKFQGRVTMTRDTSISTAYMELSRLRSDDTAVYYCARLDYFGDSFDLWGQGTTVTVSSASTKGPEVQLVQSGAEVKKPGESVKISCKASGGSFRSYGISWVRQAPGQGLEWMGGITHFFGITDYAQKFQGRVTITADESTTTAYMELSGLTSDDTAVYYCAREPNDFWNGYYDTHDFDSWGQGTTVTVSS
VL: DIQMTQSPSSLSASVGDRVTITCRASQGIRNYLNWYQQKPGKAPKLLIYYASNLEVGVPSRFSGSGSGTDYTLTISSLQPEDFATYYCQQDNRFPYTFGGGTKVEIKRTVAAPEIVLTQSPDFQSVTPKEKVTITCRASQNIGSELHWYQQKPDQSPKLLIKYASHSISGVPSRFSGSGSGTDFTLTINGLEAEDAATYYCHQSDTLPHTFGQGTKVDIKR
notes: DVD-Ig; also called DVD2196H; DVD2196L
B3: DVD2195 (bispecific antibody)
VH: EVQLVQSGAEVKKPGSSVKVSCKASGGSFGGYGIGWVRQAPGQGLEWMGGITPFFGFADYAQKFQGRVTITADESTTTAYMELSGLTSDDTAVYYCARDPNEFWNGYYSTHDFDSWGQGTTVTVSSASTKGPSVFPLAPEVQLVQSGAEVKKPGASVKVSCKASGYTFTSYWMHWVRQAPGQGLEWIGNINPKGGSNIYNEKFQGRVTMTRDTSISTAYMELSRLRSDDTAVYYCARLDYFGDSFDLWGQGTTVTVSS
VL: EIVLTQSPDFQSVTPKEKVTITCRASQDIGSELHWYQQKPDQPPKLLIKYASHSTSGVPSRFSGSGSGTDFTLTINGLEAEDAGTYYCHQTDSLPYTFGPGTKVDIKRTVAAPDIQMTQSPSSLSASVGDRVTITCRASQGIRNYLNWYQQKPGKAPKLLIYYASNLEVGVPSRFSGSGSGTDYTLTISSLQPEDFATYYCQQDNRFPYTFGGGTKVEIKR
notes: DVD-Ig; also called DVD2195H; DVD2195L
B4: DVD2197 (bispecific antibody)
VH: EVQLVQSGAEVKKPGESVKISCKASGGSFRSYGISWVRQAPGQGLEWMGGITHFFGITDYAQKFQGRVTITADESTTTAYMELSGLTSDDTAVYYCAREPNDFWNGYYDTHDFDSWGQGTTVTVSSASTKGPEVQLVQSGAEVKKPGASVKVSCKASGYTFTSYWMHWVRQAPGQGLEWIGNINPKGGSNIYNEKFQGRVTMTRDTSISTAYMELSRLRSDDTAVYYCARLDYFGDSFDLWGQGTTVTVSS
VL: B3 VL with D28N, P43S, T55I, G84A, T91S, S93T, Y96H, P100Q
notes: DVD-Ig; also called DVD2197H; DVD2197L
B5: DVD2153 (bispecific antibody)
VH: EVQLVQSGAEVKKPGSSVKVSCKASGYTFTDYEIHWVRQAPGQGLEWMGVNDPESGGTFYNQKFDGRVTLTADESTSTAYMELSSLRSEDTAVYYCTRYSKWDSFDGMDYWGQGTTVTVSSASTKGPSVFPLAPEVTLRESGPGLVKPTQTLTLTCTLYGFSLSTSDMGVDWIRQPPGKGLEWLAHIWWDDVKRYNPALKSRLTISKDTSKNQVVLKLTSVDPVDTATYYCARTVSSGYIYYAMDYWGQGTLVTVSS
VL: DIQMTQSPSSLSASVGDRVTITCRASSGIISYIDWFQQKPGKAPKRLIYATFDLASGVPSRFSGSGSGTDYTLTISSLQPEDFATYYCRQVGSYPETFGQGTKLEIKRTVAAPDIQMTQSPSSLSASVGDRVTISCRASQDIRNYLNWYQQKPGKAPKLLIFYTSKLHSGVPSRFSGSGSGTDYTLTISSLQPEDIATYYCQQGLTPPLTFGGGTKVEIKR
B6: DVD2152 (bispecific antibody)
VH: EVTLRESGPGLVKPTQTLTLTCTLYGFSLSTSDMGVDWIRQPPGKGLEWLAHIWWDDVKRYNPALKSRLTISKDTSKNQVVLKLTSVDPVDTATYYCARTVSSGYIYYAMDYWGQGTLVTVSSASTKGPSVFPLAPEVQLVQSGAEVKKPGSSVKVSCKASGYTFTDYEIHWVRQAPGQGLEWMGVNDPESGGTFYNQKFDGRVTLTADESTSTAYMELSSLRSEDTAVYYCTRYSKWDSFDGMDYWGQGTTVTVSS
VL: DIQMTQSPSSLSASVGDRVTISCRASQDIRNYLNWYQQKPGKAPKLLIFYTSKLHSGVPSRFSGSGSGTDYTLTISSLQPEDIATYYCQQGLTPPLTFGGGTKVEIKRTVAAPDIQMTQSPSSLSASVGDRVTITCRASSGIISYIDWFQQKPGKAPKRLIYATFDLASGVPSRFSGSGSGTDYTLTISSLQPEDFATYYCRQVGSYPETFGQGTKLEIKR
B7: DVD2151 (bispecific antibody)
VH: EVQLVQSGAEVKKPGSSVKVSCKASGYTFTDYEIHWVRQAPGQGLEWMGVNDPESGGTFYNQKFDGRVTLTADESTSTAYMELSSLRSEDTAVYYCTRYSKWDSFDGMDYWGQGTTVTVSSASTKGPEVTLRESGPGLVKPTQTLTLTCTLYGFSLSTSDMGVDWIRQPPGKGLEWLAHIWWDDVKRYNPALKSRLTISKDTSKNQVVLKLTSVDPVDTATYYCARTVSSGYIYYAMDYWGQGTLVTVSS
VL: DIQMTQSPSSLSASVGDRVTITCRASSGIISYIDWFQQKPGKAPKRLIYATFDLASGVPSRFSGSGSGTDYTLTISSLQPEDFATYYCRQVGSYPETFGQGTKLEIKRTVAAPSVFIFPPDIQMTQSPSSLSASVGDRVTISCRASQDIRNYLNWYQQKPGKAPKLLIFYTSKLHSGVPSRFSGSGSGTDYTLTISSLQPEDIATYYCQQGLTPPLTFGGGTKVEIKR

The binders below were run against T1, Recombinant Human IL-13 (human, UniProt P35225 35-146, limits assumed) (assay: SPR (Biacore)).
T1 construct: bought reagent
T1 sequence (P35225 35-146 limits assumed): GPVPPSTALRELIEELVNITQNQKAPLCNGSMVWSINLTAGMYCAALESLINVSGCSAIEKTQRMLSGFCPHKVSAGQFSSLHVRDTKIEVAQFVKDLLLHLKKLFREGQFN
Procedure: (§1) The BIACORE assay (Biacore, Inc, Piscataway, N.J.) determined the affinity of antibodies or DVD-Ig with kinetic measurements of on-rate and off-rate constants. Binding of antibodies or DVD-Ig proteins to a target antigen (for example, a purified recombinant target antigen) was determined by surface plasmon resonance-based measurements with a Biacore®1000 or 3000 instrument (Biacore® AB, Uppsala, Sweden) using running HBS-EP (10 mM HEPES [pH 7.4], 150 mM NaCl, 3 mM EDTA, and 0.005% surfactant P20) at 25° C. All chemicals were obtained from Biacore® AB (Uppsala, Sweden) or otherwise from a different source as described in the text. For example, approximately 5000 RU of goat anti-mouse IgG, (Fcγ), fragment specific polyclonal antibody (Pierce Biotechnology Inc, Rockford, Ill.) diluted in 10 mM sodium acetate (pH 4.5) was directly immobilized across a CM5 research grade biosensor chip using a standard amine coupling kit according to manufacturer's instructions and procedures at 25 μg/ml. Unreacted moieties on the biosensor surface were blocked with ethanolamine. Modified carboxymethyl dextran surface in flowcell 2 and 4 was used as a reaction surface. Unmodified carboxymethyl dextran without goat anti-mouse IgG in flow cell 1 and 3 was used as the reference surface. For kinetic analysis, rate equations derived from the 1:1 Langmuir binding model were fitted simultaneously to association and dissociation phases of all eight injections (using global fit analysis) with the use of Biaevaluation 4.0.1 software. Purified antibodies or DVD-Ig proteins were diluted in HEPES-buffered saline for capture across goat anti-mouse IgG specific reaction surfaces. Antibodies or DVD-Ig proteins to be captured as a ligand (25 μg/ml) were injected over reaction matrices at a flow rate of 5 μl/minute. The association and dissociation rate constants, kₒₙ (M⁻¹s⁻¹) and koff (s⁻¹) were determined under a continuous flow rate of 25 μl/minute. Rate constants were derived by making kinetic binding measurements at different antigen concentrations ranging from 10-200 nM. The equilibrium dissociation constant (M) of the reaction between antibodies or DVD-Ig proteins and the target antigen was then calculated from the kinetic rate constants by the following formula: KD=koff/kₒₙ. Binding was recorded as a function of time and kinetic rate constants were calculated.
In the case of B1, the Kd is reported as 0.066 nM, the koff is reported as 3.9e-05 s⁻¹ and the kon is reported as 590000 M⁻¹ s⁻¹. B2 was tested, and the Kd was 0.029 nM, the koff was 6.4e-05 s⁻¹ and the kon was 2.2e+06 M⁻¹ s⁻¹. For B3, the Kd was 0.014 nM, the koff was 3.7e-05 s⁻¹ and the kon was 2.6e+06 M⁻¹ s⁻¹. B4 gave a Kd of 0.14 nM, a koff of 4.4e-05 s⁻¹ and a kon of 310000 M⁻¹ s⁻¹.

What follows are binders tested against T2, Recombinant Human IL-17 (human, UniProt Q16552 20-155, limits assumed) (assay: SPR (Biacore)).
T2 construct: bought reagent; also called IL-17A
T2 sequence (looked up): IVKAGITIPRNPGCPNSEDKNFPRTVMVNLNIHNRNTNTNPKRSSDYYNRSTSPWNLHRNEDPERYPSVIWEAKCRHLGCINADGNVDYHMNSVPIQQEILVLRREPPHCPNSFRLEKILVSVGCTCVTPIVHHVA
Procedure: as §1
For B1, the Kd was 0.012 nM, the koff was 2.2e-05 s⁻¹ and the kon was 1.9e+06 M⁻¹ s⁻¹. For B2, the Kd was < 0.0091 nM, the koff was < 1e-06 s⁻¹ and the kon was 110000 M⁻¹ s⁻¹. B3 showed a Kd of 0.002 nM, a koff of 4.8e-06 s⁻¹ and a kon of 2.4e+06 M⁻¹ s⁻¹. With B4 the Kd was 0.038 nM, the koff was 6.2e-05 s⁻¹ and the kon was 1.6e+06 M⁻¹ s⁻¹.

What follows are binders tested against T1, Recombinant Human IL-13 (assay: cell-based or functional assay).
With B5 the “C-Terminal VD IL13 Neutralization Assay IC50” value was 2.44 nM. With B1 the “C-Terminal VD IL13 Neutralization Assay IC50” value was 0.028 nM. With B6 the “N-Terminal VD IL13 Neutralization Assay IC50” value was 0.112 nM. With B7 the “C-Terminal VD IL13 Neutralization Assay IC50” value was 0.526 nM. With B2 the “N-Terminal VD IL13 Neutralization Assay IC50” value was 0.029 nM. With B3 the “C-Terminal VD IL13 Neutralization Assay IC50” value was 0.052 nM. With B4 the “C-Terminal VD IL13 Neutralization Assay IC50” value was 0.081 nM.

The binders below were run against T2, Recombinant Human IL-17 (assay: cell-based or functional assay).
In the case of B5, the “N-Terminal VD IL17 Neutralization Assay IC50” value is reported as 0.0049 nM. In the case of B1, the “N-Terminal VD IL17 Neutralization Assay IC50” value is reported as 0.014 nM. For B6, the “C-Terminal VD IL17 Neutralization Assay IC50” value was 0.0069 nM. B7 was tested, and the “N-Terminal VD IL17 Neutralization Assay IC50” value was 0.0179 nM. B2 was tested, and the “C-Terminal VD IL17 Neutralization Assay IC50” value was 0.0551 nM. In the case of B3, the “N-Terminal VD IL17 Neutralization Assay IC50” value is reported as 0.0181 nM. With B4 the “N-Terminal VD IL17 Neutralization Assay IC50” value was 0.005 nM.

Source: US20130236458A1 (AbbVie / Abbott, published 2013)
